# In the Human Domainome abundance scans (Beltran et al. 2025):
# ± gives the uncertainty stated by the source.
# B1: Homeobox expressed in ES cells 1, residues 110 to 165; numbered along this chain, Q9UBX0 (parent)
# chain: RPRTAFTQNQIEVLENVFRVNCYPGIDIREDLAQKLNLEEDRIQIWFQNRRAKLKR
# Variants of: B1
# Assay: abundance fitness (aPCA) (normalised: wild type 0, dead -1); higher = more abundant; growth selection in yeast, the domain comes from the species named
# Settings: Homo sapiens
row,Variant,abundance fitness
1,Q44E,-0.532 ± 0.33
2,Q44W,-0.277 ± 0.23
3,Q44M,-0.12 ± 0.26
4,Q44F,-0.385 ± 0.28
5,Q44L,-0.079 ± 0.11
6,Q44V,-0.161 ± 0.12
7,Q44N,-0.059 ± 0.26
8,Q44C,0.033 ± 0.085
9,Q44A,0.087 ± 0.14
10,Q44Y,-0.582 ± 0.33
11,Q44I,0.061 ± 0.12
12,Q44T,0.038 ± 0.1
13,Q44G,-0.206 ± 0.12
14,Q44K,0.179 ± 0.17
15,Q44D,-0.007 ± 0.17
16,Q44P,-0.982 ± 0.31
17,Q44H,0.35 ± 0.18
18,Q44S,-0.129 ± 0.08
19,L36C,-0.508 ± 0.31
20,L36K,-0.931 ± 0.36
21,L36A,-1.01 ± 0.36
22,L36D,-0.862 ± 0.3
23,L36V,-1.01 ± 0.21
24,L36G,-0.86 ± 0.15

row,Variant,abundance fitness
1,L36M,-0.11 ± 0.34
2,L36S,-0.855 ± 0.34
3,L36E,-0.924 ± 0.34
4,L36H,-0.712 ± 0.13
5,L36F,0.221 ± 0.2
6,L36W,-0.132 ± 0.097
7,L36R,-0.984 ± 0.19
8,N37M,-0.613 ± 0.36
9,N37G,0.093 ± 0.098
10,N37L,-0.312 ± 0.13
11,N37S,-0.459 ± 0.22
12,N37D,-0.151 ± 0.31
13,N37H,-0.343 ± 0.3
14,N37K,-0.032 ± 0.079
15,N37W,-0.863 ± 0.47
16,N37E,-0.138 ± 0.13
17,N37P,-0.051 ± 0.23
18,N37Q,-0.189 ± 0.085
19,N37I,-0.431 ± 0.38
20,N37F,-0.195 ± 0.23
21,N37Y,-0.634 ± 0.15
22,N37T,-0.258 ± 0.12
23,N37C,-0.18 ± 0.065
24,E39L,-0.507 ± 0.12

row,Variant,abundance fitness
1,E39C,-0.104 ± 0.088
2,E39N,-0.241 ± 0.26
3,E39W,-0.752 ± 0.23
4,E39M,-0.562 ± 0.15
5,E39Q,-0.185 ± 0.15
6,E39V,-0.619 ± 0.12
7,E39A,-0.144 ± 0.18
8,E39S,0.02 ± 0.082
9,E39K,-0.476 ± 0.45
10,E39R,-0.34 ± 0.11
11,E39G,-0.154 ± 0.098
12,E39Y,-0.675 ± 0.12
13,E39I,-1.06 ± 0.36
14,E39D,0.333 ± 0.33
15,D41H,-0.039 ± 0.31
16,D41S,0.115 ± 0.11
17,D41M,-0.174 ± 0.14
18,D41N,0.665 ± 0.18
19,D41Q,-0.012 ± 0.21
20,D41R,0.026 ± 0.073
21,D41E,0.08 ± 0.1
22,D41V,-0.095 ± 0.13
23,D41W,0.055 ± 0.15
24,D41I,-0.027 ± 0.17

row,Variant,abundance fitness
1,D41K,-0.174 ± 0.23
2,D41T,0.023 ± 0.11
3,D41G,-0.171 ± 0.094
4,D41C,-0.081 ± 0.15
5,D41P,-0.044 ± 0.15
6,D41F,-0.139 ± 0.12
7,R42K,0.184 ± 0.3
8,R42Q,0.351 ± 0.3
9,R42H,-0.05 ± 0.077
10,R42L,-0.156 ± 0.16
11,R42I,0.055 ± 0.3
12,R42N,0.049 ± 0.15
13,R42S,0.096 ± 0.078
14,R42E,0.255 ± 0.2
15,R42Y,0.037 ± 0.36
16,R42A,0.076 ± 0.11
17,R42D,-0.361 ± 0.25
18,R42C,-0.03 ± 0.12
19,R42V,0.135 ± 0.072
20,R42W,0.065 ± 0.22
21,R42T,0.257 ± 0.14
22,R42G,-0.399 ± 0.11
23,L38A,-0.181 ± 0.14
24,L38P,-0.533 ± 0.25

row,Variant,abundance fitness
1,L38E,-0.521 ± 0.25
2,L38G,-0.952 ± 0.19
3,L38D,-0.665 ± 0.38
4,L38S,-0.259 ± 0.11
5,L38Y,-0.717 ± 0.26
6,L38K,-0.685 ± 0.42
7,L38Q,-0.223 ± 0.39
8,L38R,-0.849 ± 0.1
9,L38N,-0.572 ± 0.27
10,L38I,0.146 ± 0.12
11,L38C,0.151 ± 0.11
12,L38W,-0.885 ± 0.36
13,L38F,0.009 ± 0.13
14,L38V,0.061 ± 0.065
15,L38T,0.077 ± 0.074
16,K35Y,-0.364 ± 0.29
17,K35C,-0.515 ± 0.3
18,K35N,-0.317 ± 0.15
19,K35G,-0.657 ± 0.14
20,K35W,-0.743 ± 0.11
21,K35R,-0.194 ± 0.075
22,K35S,-0.487 ± 0.14
23,K35M,-0.377 ± 0.1
24,K35P,-1.15 ± 0.3

row,Variant,abundance fitness
1,K35F,-0.603 ± 0.28
2,K35Q,-0.197 ± 0.19
3,K35H,-0.651 ± 0.47
4,K35V,-0.694 ± 0.18
5,K35E,0.05 ± 0.13
6,K35I,-0.468 ± 0.18
7,I45T,0.114 ± 0.11
8,I45N,0.166 ± 0.2
9,I45E,0.079 ± 0.13
10,I45R,0.033 ± 0.099
11,I45D,0.052 ± 0.2
12,I45K,0.193 ± 0.19
13,I45L,-0.026 ± 0.1
14,I45C,0.196 ± 0.14
15,I45Q,0.108 ± 0.069
16,I45M,-0.049 ± 0.097
17,I45F,0.157 ± 0.21
18,I45G,-0.031 ± 0.083
19,I45H,-0.166 ± 0.12
20,I45W,0.444 ± 0.15
21,E40A,0.052 ± 0.091
22,E40T,-0.124 ± 0.11
23,E40V,-0.244 ± 0.13
24,E40L,-0.338 ± 0.13

row,Variant,abundance fitness
1,E40F,-0.078 ± 0.17
2,E40G,-0.399 ± 0.13
3,E40D,-0.119 ± 0.18
4,E40Y,-0.57 ± 0.12
5,E40S,-0.162 ± 0.1
6,E40C,-0.348 ± 0.076
7,E40R,-0.167 ± 0.091
8,E40K,-0.611 ± 0.26
9,E40H,-0.282 ± 0.17
10,E40N,-0.614 ± 0.31
11,E40W,-0.928 ± 0.39
12,E40Q,-0.047 ± 0.14
13,E40I,-0.205 ± 0.19
14,I43K,-0.451 ± 0.4
15,I43Q,-0.796 ± 0.46
16,I43L,-0.581 ± 0.16
17,I43G,-0.98 ± 0.13
18,I43W,-0.822 ± 0.16
19,I43E,-0.966 ± 0.48
20,I43R,-0.936 ± 0.26
21,I43S,-0.917 ± 0.25
22,I43T,-0.543 ± 0.31
23,I43P,-0.912 ± 0.44
